In experiment [1] the target is T1, human complement protein C6 (human, UniProt P13671 22-934).
T1 construct: also called human C6; C6 antigen
Description: C6-binding ELISA, A650 nm; sample 'PBS' (28 days at 37 C) [cont.) E]. As to the method: (§1) For the serum stability assessment, samples of the purified candidate antibodies are normally incubated in mouse, human and cynomolgus serum at 37 C for 28 days and then tested in an antigen-binding ELISA. Since the anti-C6 antibodies are expected to bind to both human and cynomolgus C6 but not mouse C6, we anticipated that incubating in human or cynomolgus sera would reduce ELISA binding due to occupation of the antibody binding sites by C6 protein from the sera. Therefore, the chimeric and humanized antibodies were tested with human and mouse sera and with human sera from which the C6 protein has been depleted. The C6-binding ELISA was then used to compare the binding abilities of the C601 antibodies that had been incubated in the 3 different sera to antibody samples that were incubated in PBS at 37 C or kept at 4 C (non-incubated).
(§2) The Uncle instrument (Unchained Labs) was used to monitor unfolding via intrinsic fluorescence and aggregation by static light scattering across a temperature gradient to obtain melting temperatures (Tₘ). […] Isoelectric points were determined by capillary isoelectric focusing using a PA800+ (Beckman Coulter). […]
(In general: In an ELISA, binding on a coated surface is turned into a signal by an enzyme label.)

Experiment [2] addresses T1, human complement protein C6. Description: C6-binding ELISA, A650 nm; sample 'C6-depleted human serum' (28 days at 37 C) [cont.) E]. Here is the method:
as §1, with “The C6-binding ELISA was then used to compare the binding abilities of the C601 antibodies that had been incubated in the 3 different sera to antibody samples that were incubated in PBS at 37 C or kept at 4 C (non-incubated).” left out
(§3) Binding ELISAs used Nunc Maxisorp 384-well plates, wells coated with C6, C5b,6 complex or C5 (Complement Technology Inc, TX) and goat anti-human IgG (Fab specific) peroxidase secondary antibodies (Sigma-Aldrich, A0293) for detection. For the thermal stability assay, IgG supernatants were diluted to their EC₈₀ concentration, incubated at different temperatures for 10 min and C6 binding measured by ELISA with the binding signal plotted against temperature. Kinetics of C6 binding were measured by capturing antibodies from supernatant samples using Protein G biosensors and performing a 20 min association step with 2.5 nM C6 and a 20 min dissociation step using the Octet RED96. […]

Experiment [3] shares this target. In words: SPR (Biacore 8K), IgG on protein G chip, C6 0.31-20 nM 2-fold series, 1:1 fit. Here is the method: (§4) The kinetics of C6 binding was compared for the purified chimeric and lead humanized C601 using surface plasmon resonance (SPR, Biacore 8K). IgG were captured on a protein G sensor chip and binding of C6 measured using a three-fold concentration series of C6 from 0.03 nM-25 nM (FIG. 5). In a second experiment, a two-fold concentration series from 0.31 nM-20 nM C6 was used (FIG. 6). For all antibodies, binding of C6 occurred in a concentration-dependent manner and data could be fitted using a 1:1 model to calculate the association rate (kₒₙ), dissociation rates (kd) and affinity constant (KD). The kinetic data are shown in Table 5, which indicates only small differences between the parameters determined from the two independent experiments.
(In general: SPR reads the build-up and loss of mass on a sensor chip optically.)

For experiment [4] the target is unchanged. In words: ELISA, C6-coated wells, large-scale purified antibody.
The target is the same in experiment [5]. In words: C6-binding ELISA, A650 nm; sample 'human serun' (human serum, 28 days at 37 C) [cont.) E]. As to the method: as §1, with “The C6-binding ELISA was then used to compare the binding abilities of the C601 antibodies that had been incubated in the 3 different sera to antibody samples that were incubated in PBS at 37 C or kept at 4 C (non-incubated).” left out
as §3

Experiment [6] has the same target. Description: C6-binding ELISA, A650 nm; sample 'PBS, non-incubated' (kept at 4 C) [cont.) E]. Here is the method:
(§5) The C6-binding ELISA was then used to compare the binding abilities of the C601 antibodies that had been incubated in the 3 different sera to antibody samples that were incubated in PBS at 37 C or kept at 4 C (non-incubated).
(§6) Binding ELISAs used Nunc Maxisorp 384-well plates, wells coated with C6, C5b,6 complex or C5 (Complement Technology Inc, TX) and goat anti-human IgG (Fab specific) peroxidase secondary antibodies (Sigma-Aldrich, A0293) for detection. For the thermal stability assay, IgG supernatants were diluted to their EC₈₀ concentration, incubated at different temperatures for 10 min and C6 binding measured by ELISA with the binding signal plotted against temperature. Kinetics of C6 binding were measured by capturing antibodies from supernatant samples using Protein G biosensors and performing a 20 min association step with 2.5 nM C6 and a 20 min dissociation step using the Octet RED96. […] Binding of C6 measured using a three-fold concentration series of C6 from 0.03 nM-25 nM and data were fitted using a 1:1 model in two independent experiments.
(§7) The Uncle instrument (Unchained Labs) was used to monitor unfolding via intrinsic fluorescence and aggregation by static light scattering across a temperature gradient to obtain melting temperatures (Tₘ). […] Isoelectric points were determined by capillary isoelectric focusing using a PA800+ (Beckman Coulter).

Experiment [7] shares this target. Description: C6-binding ELISA, A650 nm; sample 'mouse serum' (28 days at 37 C) [cont.) E]. Here is the method: as §1, with “The C6-binding ELISA was then used to compare the binding abilities of the C601 antibodies that had been incubated in the 3 different sera to antibody samples that were incubated in PBS at 37 C or kept at 4 C (non-incubated).” left out
as §3

Experiment [8] deals with human complement protein C5 (human, UniProt P01031 19-673; P01031 678-1676). Description: ELISA, C5-coated wells. As to the method: The 20 purified antibodies were tested by ELISA for their abilities to bind human complement proteins C5, C5b6 and C6. The antibodies were divided into two sets for this analysis. MoC601 HuG4K and HuG4K isotype controls were included alongside each set, as was C601HFKC4 HuG4K (aka 3713) expression supernatant from the original transfection as an additional positive control. In addition, three humanized antibodies (C601HFKC4 HuG4K, C601HPKI HuG4K and C601HPKC4 HuG4K) were included within both sets to allow better comparison between the plates. The antibodies all show specificity for C6 with no detectable binding to C5. All humanized antibodies bind to C6 and to C6 as part of the C5b6 complex. The lower plateaus of the C5b6 complex binding curves are explained by less C6 protein being available for binding when wells are coated with C5b6 complex as opposed to C6 alone. […] The EC₅₀ values are included in the figure but slightly different plateau levels observed for the antibodies are influencing the apparent EC₅₀ values. However, it was noted that the EC₅₀ values tended to be lower on the plates for the second set of antibodies. For this reason, a subset of the 20 antibodies was tested in a further ELISA for binding to C6 and C5b6 complex.
(§8) Binding ELISAs used Nunc Maxisorp 384-well plates, wells coated with C6, C5b,6 complex or C5 (Complement Technology Inc, TX) and goat anti-human IgG (Fab specific) peroxidase secondary antibodies (Sigma-Aldrich, A0293) for detection. For the thermal stability assay, IgG supernatants were diluted to their EC₈₀ concentration, incubated at different temperatures for 10 min and C6 binding measured by ELISA with the binding signal plotted against temperature. Kinetics of C6 binding were measured by capturing antibodies from supernatant samples using Protein G biosensors and performing a 20 min association step with 2.5 nM C6 and a 20 min dissociation step using the Octet RED96. Precise kinetic measurements were obtained by surface plasmon resonance (Biacore 8K, Cytiva). The IgG were captured on a protein G sensor chip. Binding of C6 measured using a three-fold concentration series of C6 from 0.03 nM-25 nM and data were fitted using a 1:1 model in two independent experiments.

The target of experiment [9] is T1, human complement protein C6. Description: SPR (Biacore 8K), IgG on protein G chip, C6 0.03-25 nM 3-fold series, 1:1 fit. As to the method:
as §4, §8

For experiment [10] the target is unchanged. In words: SPR (Biacore 8K). Here is the method: as §4, §8
Experiment [11] shares this target. Description: C6-binding ELISA, A650 nm; sample 'mouse serum' (28 days at 37 C) [cont.) F]. As to the method:
as §1, with “The C6-binding ELISA was then used to compare the binding abilities of the C601 antibodies that had been incubated in the 3 different sera to antibody samples that were incubated in PBS at 37 C or kept at 4 C (non-incubated).” left out
as §3

Experiment [12] has the same target. In words: C6-binding ELISA, A650 nm; sample 'human serun' (human serum, 28 days at 37 C) [cont.) F]. As to the method:
as §1, §2

Experiment [13] has the same target. In words: C6-binding ELISA, A650 nm; sample 'PBS' (28 days at 37 C) [cont.) F]. Here is the method:
as §1, §2

Experiment [14] has the same target. In words: C6-binding ELISA, A650 nm; sample 'PBS, non-incubated' (kept at 4 C) [cont.) F]. As to the method: as §5, §6, §7
For experiment [15] the target is unchanged. Description: C6-binding ELISA, A650 nm; sample 'C6-depleted human serum' (28 days at 37 C) [cont.) F]. Here is the method:
as §1, with “The C6-binding ELISA was then used to compare the binding abilities of the C601 antibodies that had been incubated in the 3 different sera to antibody samples that were incubated in PBS at 37 C or kept at 4 C (non-incubated).” left out
as §3

As usually defined, the EC50 is the concentration at which the effect is half-maximal. Higher therefore signals a need for much substance. By Kd is commonly meant the free concentration of one partner at which half of the binding sites on the other are occupied at equilibrium, for simple one-to-one binding. A word on the koff: it is a measure of how fast the partners let go of each other. Read a low koff as a long-lived complex. Broadly, the kon is a measure of how fast the partners come together. A lower kon goes with slow association.

T1 sequence (P13671 22-934 limits assumed): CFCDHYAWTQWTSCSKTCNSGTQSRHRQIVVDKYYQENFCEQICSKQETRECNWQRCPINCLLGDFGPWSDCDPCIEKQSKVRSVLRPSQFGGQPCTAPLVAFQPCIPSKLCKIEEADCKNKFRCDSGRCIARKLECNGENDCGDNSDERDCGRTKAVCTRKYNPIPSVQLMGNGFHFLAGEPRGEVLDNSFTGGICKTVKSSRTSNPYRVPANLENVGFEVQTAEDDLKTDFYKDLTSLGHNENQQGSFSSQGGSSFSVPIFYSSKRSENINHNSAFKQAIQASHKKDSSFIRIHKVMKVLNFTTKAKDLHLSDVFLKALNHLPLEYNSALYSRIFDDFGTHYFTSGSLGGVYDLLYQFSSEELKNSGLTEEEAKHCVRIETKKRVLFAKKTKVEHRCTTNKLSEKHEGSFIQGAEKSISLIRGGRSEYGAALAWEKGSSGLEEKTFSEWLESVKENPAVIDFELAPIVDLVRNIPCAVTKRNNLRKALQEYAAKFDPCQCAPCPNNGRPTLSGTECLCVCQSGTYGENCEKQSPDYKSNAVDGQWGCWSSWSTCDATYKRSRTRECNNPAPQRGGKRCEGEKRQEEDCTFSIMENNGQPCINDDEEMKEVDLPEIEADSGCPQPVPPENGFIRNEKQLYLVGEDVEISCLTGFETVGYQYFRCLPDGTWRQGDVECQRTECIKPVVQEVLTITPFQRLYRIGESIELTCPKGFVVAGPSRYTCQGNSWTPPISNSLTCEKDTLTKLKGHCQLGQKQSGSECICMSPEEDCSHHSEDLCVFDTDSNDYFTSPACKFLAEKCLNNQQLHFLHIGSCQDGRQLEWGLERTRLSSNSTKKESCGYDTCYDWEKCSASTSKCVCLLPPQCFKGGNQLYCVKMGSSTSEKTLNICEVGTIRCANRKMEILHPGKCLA
Sequence of human complement protein C5 (P01031 19-673 limits assumed, chain 1 of 2): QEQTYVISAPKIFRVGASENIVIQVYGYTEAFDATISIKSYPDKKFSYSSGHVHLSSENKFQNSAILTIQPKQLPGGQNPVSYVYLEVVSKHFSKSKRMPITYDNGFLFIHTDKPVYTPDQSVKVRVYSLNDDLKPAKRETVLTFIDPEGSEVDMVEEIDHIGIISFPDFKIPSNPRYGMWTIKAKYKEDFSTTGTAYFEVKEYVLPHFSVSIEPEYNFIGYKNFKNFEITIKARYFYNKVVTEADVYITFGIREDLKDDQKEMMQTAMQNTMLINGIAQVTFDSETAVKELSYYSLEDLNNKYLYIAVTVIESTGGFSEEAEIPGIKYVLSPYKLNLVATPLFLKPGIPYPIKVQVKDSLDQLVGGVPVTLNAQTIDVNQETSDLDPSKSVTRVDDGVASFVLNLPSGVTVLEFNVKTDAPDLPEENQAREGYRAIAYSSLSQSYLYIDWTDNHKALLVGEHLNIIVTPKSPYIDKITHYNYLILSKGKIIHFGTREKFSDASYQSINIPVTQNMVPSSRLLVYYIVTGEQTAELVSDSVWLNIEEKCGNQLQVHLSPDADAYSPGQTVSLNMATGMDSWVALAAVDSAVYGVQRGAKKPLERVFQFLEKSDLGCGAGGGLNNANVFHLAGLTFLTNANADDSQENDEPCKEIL
Sequence of human complement protein C5 (P01031 678-1676 limits assumed, chain 2 of 2): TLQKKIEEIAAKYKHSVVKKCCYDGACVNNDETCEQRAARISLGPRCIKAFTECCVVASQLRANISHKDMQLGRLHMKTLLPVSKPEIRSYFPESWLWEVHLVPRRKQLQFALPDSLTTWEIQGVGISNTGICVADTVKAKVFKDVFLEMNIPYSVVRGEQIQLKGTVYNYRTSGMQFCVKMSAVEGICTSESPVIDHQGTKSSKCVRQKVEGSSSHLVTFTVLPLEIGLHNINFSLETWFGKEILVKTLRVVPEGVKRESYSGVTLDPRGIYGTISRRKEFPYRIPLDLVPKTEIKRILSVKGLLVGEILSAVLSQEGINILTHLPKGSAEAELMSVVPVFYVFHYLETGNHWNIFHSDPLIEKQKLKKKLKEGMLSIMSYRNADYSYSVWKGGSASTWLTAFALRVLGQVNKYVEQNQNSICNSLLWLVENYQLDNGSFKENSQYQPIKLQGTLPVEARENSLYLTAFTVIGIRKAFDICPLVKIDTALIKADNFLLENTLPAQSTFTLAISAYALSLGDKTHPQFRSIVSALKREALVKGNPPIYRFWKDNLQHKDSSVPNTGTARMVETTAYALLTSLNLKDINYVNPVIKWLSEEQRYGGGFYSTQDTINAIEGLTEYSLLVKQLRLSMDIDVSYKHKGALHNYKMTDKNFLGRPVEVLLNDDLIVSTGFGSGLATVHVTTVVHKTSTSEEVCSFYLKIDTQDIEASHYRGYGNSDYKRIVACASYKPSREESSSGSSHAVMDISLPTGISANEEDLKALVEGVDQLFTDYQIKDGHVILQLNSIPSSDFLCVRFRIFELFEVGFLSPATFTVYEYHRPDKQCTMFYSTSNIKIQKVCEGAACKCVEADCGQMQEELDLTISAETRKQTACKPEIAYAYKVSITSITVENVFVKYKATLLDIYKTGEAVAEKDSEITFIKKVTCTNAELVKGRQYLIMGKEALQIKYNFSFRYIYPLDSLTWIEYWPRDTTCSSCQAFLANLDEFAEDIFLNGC

B1: C601HOKC4 HuG4K (antibody, human IgG4 S228P, kappa, V domains shown)
VH: QVQLVQSGAEVKKPGESLKISCKASGYAFSDYWINWVRQMPGKGLEWMGQIYPGDDDTNYNPSFQGQATLSADKSISTAYLQWSSLKASDTAMYYCAREGYYGYTYVEYFDVWGTGTTVTVSS
VL: QIVLTQSPATLSLSPGERATLSCRASSSVSYLHWYQQKPGQSPRLWIYDTSKRATGIPARFSGSGSGTDYTLTISSLEPEDFAVYYCQQWTSNPLTFGQGTKLEIKR
With B1, the EC50 in experiment [1] amounted to 0.18 nM; in experiment [2] it was 0.15 nM; in experiment [4], 0.21 nM; in experiment [5], 0.16 nM; in experiment [6] it was 0.13 nM; in experiment [7] it was 0.16 nM. In addition, the Kd turned out to be 0.284 nM in experiment [3], 0.411 nM in experiment [9] and 0.411 nM in experiment [10]. Also, the koff in experiment [3] came to 0.000375 s⁻¹; in experiment [9] it was 0.000492 s⁻¹. Besides, the kon in experiment [3] came out at 1.32e+06 M⁻¹ s⁻¹; in [9], 1.2e+06 M⁻¹ s⁻¹. For the same molecule, in experiment [8], the binding result is “no binding”.

B2: C601HPKC4 HuG4K (antibody, human IgG4 S228P, kappa)
heavy: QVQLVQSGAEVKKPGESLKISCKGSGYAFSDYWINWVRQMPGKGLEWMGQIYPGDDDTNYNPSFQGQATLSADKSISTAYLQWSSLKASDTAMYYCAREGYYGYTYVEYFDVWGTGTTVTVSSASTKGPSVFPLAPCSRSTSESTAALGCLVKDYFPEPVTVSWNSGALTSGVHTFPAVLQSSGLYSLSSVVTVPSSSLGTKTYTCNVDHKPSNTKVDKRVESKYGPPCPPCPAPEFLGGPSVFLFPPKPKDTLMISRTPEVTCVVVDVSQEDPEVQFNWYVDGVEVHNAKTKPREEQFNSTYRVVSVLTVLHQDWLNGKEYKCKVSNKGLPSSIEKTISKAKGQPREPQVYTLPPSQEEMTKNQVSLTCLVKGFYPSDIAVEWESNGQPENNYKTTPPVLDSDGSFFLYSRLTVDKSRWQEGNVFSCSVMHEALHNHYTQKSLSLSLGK
light: QIVLTQSPATLSLSPGERATLSCRASSSVSYLHWYQQKPGQSPRLWIYDTSKRATGIPARFSGSGSGTDYTLTISSLEPEDFAVYYCQQWTSNPLTFGQGTKLEIKRTVAAPSVFIFPPSDEQLKSGTASVVCLLNNFYPREAKVQWKVDNALQSGNSQESVTEQDSKDSTYSLSSTLTLSKADYEKHKVYACEVTHQGLSSPVTKSFNRGEC
For B2, the half-maximal effective concentration (EC50) in [11] is 0.16 nM; in [12] it was 0.17 nM; in experiment [4] it was 0.23 nM; in [13], 0.19 nM; in [14], 0.22 nM; in [15] it was 0.17 nM. The Kd was 0.299 nM in experiment [3], 0.373 nM in experiment [9] and 0.373 nM in [10]. Further, the values for the koff in experiment [3] and in [9] were 0.000355 s⁻¹ and 0.000397 s⁻¹, respectively. Further, the figures for the kon in experiment [3] and in experiment [9] were 1.19e+06 M⁻¹ s⁻¹ and 1.07e+06 M⁻¹ s⁻¹, respectively. For the same molecule, the binding result in experiment [8] was “no binding”.

The record behind these values is US20260125455A1 (CLEVELAND CLINIC FOUNDATION, published 2026).
